The values below come from article PMC7910558, “The HIF-1α antisense long non-coding RNA drives a positive feedback loop of HIF-1α mediated transactivation and glycolysis”.

Data set [1] concerns the target PHD3 (EMSA) (UniProt Q9H6Z9 1-239). In words: EMSA; Pull-down: RNA folded in 10 mM Tris pH 7, 0.1 M KCl, 10 mM MgCl2, then 5 µg RNA with 5 mg lysate in Pierce IP lysis buffer, 1 h, room temperature; EMSA: LightShift chemiluminescent RNA EMSA kit, buffer not given. The settings on record: protein: recombinant, label: biotin-16-UTP. A general note: Mobility shift assays separate free from complexed probe on a gel.

In data set [2] the target is PKM2 (EMSA) (UniProt P14618 1-531). The description is as above. The settings on record: protein: recombinant; label: biotin-16-UTP; two predicted hairpins (nt 4-19, nt 30-57).
PKM2 (EMSA), sequence (P14618 whole entry): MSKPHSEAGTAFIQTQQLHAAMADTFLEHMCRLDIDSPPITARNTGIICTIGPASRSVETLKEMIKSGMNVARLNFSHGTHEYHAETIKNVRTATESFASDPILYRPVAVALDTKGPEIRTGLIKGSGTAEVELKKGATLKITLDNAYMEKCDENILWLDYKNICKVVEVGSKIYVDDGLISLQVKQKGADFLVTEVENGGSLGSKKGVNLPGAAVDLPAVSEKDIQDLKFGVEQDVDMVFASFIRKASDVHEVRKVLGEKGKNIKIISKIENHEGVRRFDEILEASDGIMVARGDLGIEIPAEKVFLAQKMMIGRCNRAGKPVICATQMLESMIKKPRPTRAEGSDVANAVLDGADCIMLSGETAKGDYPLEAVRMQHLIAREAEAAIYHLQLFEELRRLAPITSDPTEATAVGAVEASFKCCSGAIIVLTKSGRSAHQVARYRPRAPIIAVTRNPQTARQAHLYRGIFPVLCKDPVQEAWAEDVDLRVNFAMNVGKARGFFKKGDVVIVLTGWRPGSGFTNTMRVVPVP

PHD3 (EMSA), sequence (Q9H6Z9 whole entry): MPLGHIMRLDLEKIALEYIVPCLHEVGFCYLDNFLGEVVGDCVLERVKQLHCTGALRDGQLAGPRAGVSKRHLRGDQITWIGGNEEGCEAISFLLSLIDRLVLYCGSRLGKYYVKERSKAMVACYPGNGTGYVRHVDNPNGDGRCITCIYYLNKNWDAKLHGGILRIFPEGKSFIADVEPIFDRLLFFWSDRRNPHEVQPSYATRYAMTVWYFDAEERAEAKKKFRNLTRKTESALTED

For UGCAUGUCUAAACAUUUUUCACCUAUUAUUUAAUC (ssRNA) [HIFAL 501-560 ΔhC (mC)], the binding result in data set [1] is reported as “no binding”.

B1: HIFAL nt 501-560 (structured_RNA)
RNA: UGCAUGGUGCUUACUAAUAACACAGUGGUAUUCUAAACAUUUUUCACCUAUUAUUUAAUC
B1: the binding result in data set [1] (predicted hairpin (nt 506-532)) was “binds”.

B2: HIFAL nt 1-60 (structured_RNA)
RNA: UCAUGUAGCGCCAGCCACACCAGGAACAGAAGGGUGCCGGGUACCUUCCGCAUGCUUGGU
For the molecule B2, the binding result in data set [2] was “binds”.
